Experimental data reported in the RNAGym collection of RNA variant scans (doi:10.7554/elife.80360).

B1: Hammerhead Ribozyme (parent)
chain: ACCGGAUGUGCUUUCCGGUCUGAUGAGUCCGUGAGGACGAAACAG

Variants of: B1
Assay: self-cleavage, relative activity (ratio to wild type); higher = more cleavage; co-transcriptional

Question: For ACCGGAUGUGAUUUCCGGUCUGAUGAGUCCGUGAGGACGAAGCAG, which self-cleavage is on record?
Answer: 0.241

Question: For ACCGGAUGUGAUUUCCGGUCUGAUGAGUCCGUGAGGACGAAUCAG, which self-cleavage is on record?
Answer: 0.282

Question: Which self-cleavage does the source give for ACCGGAUGUGAUUUCCGGUCUGAUGAGUCCGUGAGGACGAACCAG here?
Answer: 0.284

Question: For ACCGGAUGUGAUUUCCGGUCUGAUGUGUCCGUGAGGACGAAACAG, which self-cleavage is on record?
Answer: 1.03

Question: For ACCGGAUGUGAUUUCCGGUCUGAUGCGUCCGUGAGGACGAAACAG, which self-cleavage is on record?
Answer: 0.725

Question: With ACCGGAUGUGAUUUCCGGUCUGAUGGGUCCGUGAGGACGAAACAG as the variant, how does the self-cleavage read?
Answer: 0.28

Question: For ACCGGAUGUGAUUUCCGGUCUGAUGAGUCCGUGAGGACGGAACAG, which self-cleavage is on record?
Answer: 0.346

Question: For ACCGGAUGUGAUUUCCGGUCUGAUGAGUCCGUGAGGACGCAACAG, which self-cleavage is on record?
Answer: 0.587

Question: Which self-cleavage does the source give for ACCGGAUGUGAUUUCCGGUCUGAUGAGUCCGUGAGGACGUAACAG here?
Answer: 0.29

Question: For ACCGGAUGUUCUUUCCGGUCUGAUGAGUCCGUGAGGACGAAACAU, which self-cleavage is on record?
Answer: 0.926

Question: For ACCGGAUGUUCUUUCCGGUCUGAUGAGUCCGUGAGGACGAAACAA, which self-cleavage is on record?
Answer: 0.694

Question: With ACCGGAUGUUCUUUCCGGUCUGAUGAGUCCGUGAGGACGAAACAC as the variant, how does the self-cleavage read?
Answer: 0.828

Question: With ACCGGAUGUUCUUUCCGGCCUGAUGAGUCCGUGAGGACGAAACAG as the variant, how does the self-cleavage read?
Answer: 0.665

Question: Which self-cleavage does the source give for ACCGGAUGUUCUUUCCGGACUGAUGAGUCCGUGAGGACGAAACAG here?
Answer: 0.347

Question: With ACCGGAUGUUCUUUCCGGGCUGAUGAGUCCGUGAGGACGAAACAG as the variant, how does the self-cleavage read?
Answer: 0.435

Question: With ACCGGAUGUGAUUUCCGGUCUGAUGAGUCCGUGUGGACGAAACAG as the variant, how does the self-cleavage read?
Answer: 0.771

Question: Which self-cleavage does the source give for ACCGGAUGUGAUUUCCGGUCUGAUGAGUCCGUGGGGACGAAACAG here?
Answer: 0.996

Question: With ACCGGAUGUGAUUUCCGGUCUGAUGAGUCCGUGCGGACGAAACAG as the variant, how does the self-cleavage read?
Answer: 0.731

Question: With ACCGGAUGUUCUUUCCGGUCUGAUGAGUCCGUGACGACGAAACAG as the variant, how does the self-cleavage read?
Answer: 0.685

Question: For ACCGGAUGUUCUUUCCGGUCUGAUGAGUCCGUGAUGACGAAACAG, which self-cleavage is on record?
Answer: 0.844

Question: For ACCGGAUGUUCUUUCCGGUCUGAAGAGUCCGUGAGGACGAAACAG, which self-cleavage is on record?
Answer: 1.01

Question: Which self-cleavage does the source give for ACCGGAUGUUCUUUCCGGUCUGACGAGUCCGUGAGGACGAAACAG here?
Answer: 1.13

Question: With ACCGGAUGUUCUUUCCGGUCUGAGGAGUCCGUGAGGACGAAACAG as the variant, how does the self-cleavage read?
Answer: 1.16

Question: With ACCGGAUGUUCUUCCCGGUCUGAUGAGUCCGUGAGGACGAAACAG as the variant, how does the self-cleavage read?
Answer: 0.952

Question: With ACCGGAUGUUCUUGCCGGUCUGAUGAGUCCGUGAGGACGAAACAG as the variant, how does the self-cleavage read?
Answer: 0.709

Question: For ACCGGAUGUUCUUACCGGUCUGAUGAGUCCGUGAGGACGAAACAG, which self-cleavage is on record?
Answer: 0.822

Question: For ACCGGAUGUGAUUUCCGGUCUGAUGAGUCCGUGAGGACGAUACAG, which self-cleavage is on record?
Answer: 0.273

Question: Which self-cleavage does the source give for ACCGGAUGUGAUUUCCGGUCUGAUGAGUCCGUGAGGACGACACAG here?
Answer: 0.371

Question: Which self-cleavage does the source give for ACCGGAUGUGAUUUCCGGUCUGAUGAGUCCGUGAGGACGAGACAG here?
Answer: 0.364

Question: With ACCGGAUGUUCUUUCCGGUCUGAUGAGUCCGUGAGGACAAAACAG as the variant, how does the self-cleavage read?
Answer: 0.405

Question: With ACCGGAUGUUCUUUCCGGUCUGAUGAGUCCGUGAGGACUAAACAG as the variant, how does the self-cleavage read?
Answer: 0.313

Question: For ACCGGAUGUUCUUUCCGGUCUGAUGAGUCCGUGAGGACCAAACAG, which self-cleavage is on record?
Answer: 0.379

Question: For ACCGGAUGUGAUUUCCGGUCUGAUGAGUCCGUGAGGUCGAAACAG, which self-cleavage is on record?
Answer: 0.633

Question: With ACCGGAUGUGAUUUCCGGUCUGAUGAGUCCGUGAGGGCGAAACAG as the variant, how does the self-cleavage read?
Answer: 1.28

Question: Which self-cleavage does the source give for ACCGGAUGUGAUUUCCGGUCUGAUGAGUCCGUGAGGCCGAAACAG here?
Answer: 1.12

Question: Which self-cleavage does the source give for ACCGGAUGUUCGUUCCGGUCUGAUGAGUCCGUGAGGACGAAACAG here?
Answer: 0.773

Question: For ACCGGAUGUUCCUUCCGGUCUGAUGAGUCCGUGAGGACGAAACAG, which self-cleavage is on record?
Answer: 0.689

Question: With ACCGGAUGUUCAUUCCGGUCUGAUGAGUCCGUGAGGACGAAACAG as the variant, how does the self-cleavage read?
Answer: 0.87

Question: Which self-cleavage does the source give for ACCGGAUGUUCUUUCCGGUCUGAUGAGUCCGUGAGUACGAAACAG here?
Answer: 0.587

Question: For ACCGGAUGUUCUUUCCGGUCUGAUGAGUCCGUGAGAACGAAACAG, which self-cleavage is on record?
Answer: 0.65

Question: Which self-cleavage does the source give for ACCGGAUGUUCUUUCCGGUCUGAUGAGUCCGUGAGCACGAAACAG here?
Answer: 0.929

Question: For ACCGGAUGUUCUUUCCGGUCCGAUGAGUCCGUGAGGACGAAACAG, which self-cleavage is on record?
Answer: 0.896

Question: Which self-cleavage does the source give for ACCGGAUGUUCUUUCCGGUCGGAUGAGUCCGUGAGGACGAAACAG here?
Answer: 0.578

Question: Which self-cleavage does the source give for ACCGGAUGUUCUUUCCGGUCAGAUGAGUCCGUGAGGACGAAACAG here?
Answer: 0.605

Question: With ACCGGAUGUUCUUUCCGGUCUGAUGAGACCGUGAGGACGAAACAG as the variant, how does the self-cleavage read?
Answer: 0.771

Question: With ACCGGAUGUUCUUUCCGGUCUGAUGAGGCCGUGAGGACGAAACAG as the variant, how does the self-cleavage read?
Answer: 0.664

Question: For ACCGGAUGUUCUUUCCGGUCUGAUGAGCCCGUGAGGACGAAACAG, which self-cleavage is on record?
Answer: 1.18

Question: Which self-cleavage does the source give for ACCGGAUGUGAUUUCCGGUCUGAUGAGUCCGUGAGGACGAAACAG here?
Answer: 1.12

Question: With ACCGGAUGUUCUCUCCGGUCUGAUGAGUCCGUGAGGACGAAACAG as the variant, how does the self-cleavage read?
Answer: 1.11

Question: With ACCGGAUGUUCUAUCCGGUCUGAUGAGUCCGUGAGGACGAAACAG as the variant, how does the self-cleavage read?
Answer: 1.48

Question: For ACCGGAUGUUCUGUCCGGUCUGAUGAGUCCGUGAGGACGAAACAG, which self-cleavage is on record?
Answer: 0.674

Question: With ACCGGAUGUUCUUUCCGGUCUGAUGAGUCCGGGAGGACGAAACAG as the variant, how does the self-cleavage read?
Answer: 0.758

Question: With ACCGGAUGUUCUUUCCGGUCUGAUGAGUCCGAGAGGACGAAACAG as the variant, how does the self-cleavage read?
Answer: 0.896

Question: With ACCGGAUGUUCUUUCCGGUCUGAUGAGUCCGCGAGGACGAAACAG as the variant, how does the self-cleavage read?
Answer: 0.694

Question: Which self-cleavage does the source give for ACCGGAUGUGAUUUCCGGUCUGUUGAGUCCGUGAGGACGAAACAG here?
Answer: 0.401

Question: With ACCGGAUGUGAUUUCCGGUCUGGUGAGUCCGUGAGGACGAAACAG as the variant, how does the self-cleavage read?
Answer: 0.371

Question: For ACCGGAUGUGAUUUCCGGUCUGCUGAGUCCGUGAGGACGAAACAG, which self-cleavage is on record?
Answer: 0.491
